The results in this text go back to publication PMC8749958 (Science translational medicine, 2021).

This assay deals with T1, recombinant human CD93 protein (R&D Systems) (human, UniProt Q9NPY3 24-580).
T1 sequence (looked up): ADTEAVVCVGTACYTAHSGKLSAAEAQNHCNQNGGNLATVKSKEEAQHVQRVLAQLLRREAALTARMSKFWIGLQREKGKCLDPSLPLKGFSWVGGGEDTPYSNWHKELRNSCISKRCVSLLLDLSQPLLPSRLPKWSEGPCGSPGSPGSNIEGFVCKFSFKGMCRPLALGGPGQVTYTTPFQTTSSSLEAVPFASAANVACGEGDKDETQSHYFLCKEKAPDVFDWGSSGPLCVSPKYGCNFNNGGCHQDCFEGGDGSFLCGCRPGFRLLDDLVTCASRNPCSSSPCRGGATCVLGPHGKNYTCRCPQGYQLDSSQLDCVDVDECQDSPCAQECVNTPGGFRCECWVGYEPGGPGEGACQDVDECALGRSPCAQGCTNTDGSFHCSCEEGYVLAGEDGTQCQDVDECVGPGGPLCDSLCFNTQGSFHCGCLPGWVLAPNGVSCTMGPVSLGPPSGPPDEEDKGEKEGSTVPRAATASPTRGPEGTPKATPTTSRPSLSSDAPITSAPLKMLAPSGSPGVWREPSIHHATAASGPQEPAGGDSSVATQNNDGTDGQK
Description: MST.

B1: IGFBP7 protein (R&D Systems), labelled for microscale thermophoresis (ligand, human, UniProt Q16270 27-282, looked up)
chain: SSSDTCGPCEPASCPPLPPLGCLLGETRDACGCCPMCARGEGEPCGGGGAGRGYCAPGMECVKSRKRRKGKAGAAAGGPGVSGVCVCKSRYPVCGSDGTTYPSGCQLRAASQRAESRGEKAITQVSKGTCEQGPSIVTPPKDIWNVTGAQVYLSCEVIGIPTPVLIWNKVKRGHYGVQRTELLPGDRDNLAIQTRGGPEKHEVTGWVLVSPLSKEDAGEYECHASNSQGQASASAKITVVDALHEIPVKKGEGAEL
modifications: fluorescent dye RED-tris-NTA 2nd Generation (Monolith His-Tag Labeling kit)
As for B1, the Kd (commonly a measure of binding affinity in units of concentration) is 53.1 ± 20.2 nM.
